Source: publication PMC7291142

Test system: RSV Gag∆PR (Rous sarcoma virus (Prague C strain))
Assay: FA salt titration

Going from MΨ-WT to MΨ-A197C, the Kd rises from 0.23 mM to 9.8 mM (43-fold). The first binds more tightly here.

First: MΨ-∆SL-B
Second: MΨ-G218C
The Kd of the first is 7300-fold lower: 0.096 mM for the first, 700 mM for the second. The first binds more tightly here.

MΨ-∆L3 was tested, and the Kd was 31 mM.
